Values of other authors, collected in publication PMC5123080.

Molecular target: UNC5B ECD (Mus musculus) (UniProt Q8K1S3)
Sequence of UniProt Q8K1S3 (Q8K1S3 27-377): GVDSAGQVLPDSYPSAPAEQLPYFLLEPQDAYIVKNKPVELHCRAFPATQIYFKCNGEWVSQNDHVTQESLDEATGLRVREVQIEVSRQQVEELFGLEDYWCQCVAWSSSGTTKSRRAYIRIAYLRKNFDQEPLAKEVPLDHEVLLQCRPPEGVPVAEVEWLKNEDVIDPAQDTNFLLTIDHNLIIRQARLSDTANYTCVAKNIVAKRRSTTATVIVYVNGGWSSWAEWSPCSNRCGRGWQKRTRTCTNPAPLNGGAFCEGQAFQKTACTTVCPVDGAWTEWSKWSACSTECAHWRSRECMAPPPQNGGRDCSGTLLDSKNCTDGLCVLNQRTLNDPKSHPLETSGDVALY

Robo4 ECD (from UniProt Q8C310)
Kd: 12 nM
